We go through one molecule from paper PMC9158119 (2022).

This assay addresses SARS-CoV-2 original strain spike receptor-binding domain (S-RBD) (SARS-CoV-2, UniProt P0DTC2 320-537). Briefly: SPR. In general terms: In SPR one partner is held on a chip, and binding of the other changes the refractive index at the surface.

B1: Nb-007 (VHH)
VHH: QLQLVESGGGLVQAGGSMRLSCAASISFSSFPMGWHRQAPGKQRELVAKTGIGGTAYDDSVKGRFTISRDNTKNTVYLQMNSLKVEDTAVYYCWGWRMNDYWGQGTQVTVSS
For orientation: koff means the rate constant with which the complex falls apart. A higher koff goes with a short-lived complex. B1 came in with a koff of 0.00103 s⁻¹.
